Test results: patent US20230357367A1
Where two headings read alike, the source gives them in different places.

How the values were obtained:
[1] = target: SARS-CoV-2 spike S2 peptide 1143-1162 (stem helix region), biotinylated (SARS-CoV-2); assay: SPR, Fab over captured biotin-peptide, 25 C
[2] = target: T1, SARS-CoV-2 spike S2 peptide 1149-1163, biotinylated (SARS-CoV-2); assay: SPR, Fab over captured biotin-peptide, 25 C
[3] = target: T2, SARS-CoV-2 spike S2 peptide 1149-1167 (C-terminal end of the stem helix), biotinylated (SARS-CoV-2); assay: SPR, Fab over captured biotin-peptide, 25 C
[4] = target: T3, SARS-CoV-2 spike S2 peptide 1153-1167, biotinylated (SARS-CoV-2); assay: SPR, Fab over captured biotin-peptide, 25 C
[5] = target: T2, SARS-CoV-2 spike S2 peptide 1149-1167 …; assay: SPR, Fab over captured biotin-peptide, 25 C; remark: listed apart in the source
[6] = target: HIV-1 Env peptide (negative control 15-mer), biotinylated (HIV-1); assay: DELFIA, IgG titrated on captured biotin-peptide; design: unit not given beside the values
[7] = target: SARS-CoV-2 spike S2 peptide 1133-1147, biotinylated (SARS-CoV-2); assay: DELFIA, IgG titrated on captured biotin-peptide; design: unit not given beside the values
[8] = target: SARS-CoV-2 spike S2 peptide 1137-1151, biotinylated (SARS-CoV-2); assay: DELFIA, IgG titrated on captured biotin-peptide; design: unit not given beside the values
[9] = target: T1, SARS-CoV-2 spike S2 peptide 1149-1163, …; assay: DELFIA, IgG titrated on captured biotin-peptide; design: unit not given beside the values
[10] = target: T2, SARS-CoV-2 spike S2 peptide 1149-1167 …; assay: DELFIA, IgG titrated on captured biotin-peptide; design: unit not given beside the values
[11] = target: T3, SARS-CoV-2 spike S2 peptide 1153-1167, …; assay: DELFIA, IgG titrated on captured biotin-peptide; design: unit not given beside the values
[12] = target: SARS-CoV-2 spike S2 peptide 1157-1171, biotinylated (SARS-CoV-2); assay: DELFIA, IgG titrated on captured biotin-peptide; design: unit not given beside the values

Binder | Kd [1] [nM] | koff [1] [s⁻¹] | kon [1] [M⁻¹ s⁻¹] | Kd [2] [nM] | koff [2] [s⁻¹] | kon [2] [M⁻¹ s⁻¹] | Kd [3] [nM] | koff [3] [s⁻¹] | kon [3] [M⁻¹ s⁻¹] | Kd [4] [nM] | koff [4] [s⁻¹] | kon [4] [M⁻¹ s⁻¹] | Kd [5] [nM] | AUC [6] | AUC [7] | AUC [8] | AUC [9] | AUC [10] | AUC [11] | AUC [12]
AB-1 Fab (Fab, V domains shown) VH: EVQLVESGAEVKKPGESLKISCKGSGYTFTRYWIGWVRQMPGKGLEWMGIIYPGDSDVRYSPSFQGHVTISADKSISTAYLQWNSLKASDTAMYYCARLPQYCSKGVCYRWFDPWGQGTLVTVSS VL: EIVLTQSPSSVSASVGDRVTITCRASQGISSWLAWYQQKPGKAPKLLIYAASSLQSGVPSRFSGSGSGTDFTLTISSLQPEDFATYYCQQGHSFPYTFGQGTNLEIK | 12.3 | 0.037 | 3e+06 | 83.1 | 0.146 | 1.76e+06 | 0.9 | 0.00241 | 2.61e+06 | 111 | 0.0774 | 697000 | 0.925 |  |  |  |  |  |  | 
Reference Antibody (antibody, V domains shown) VH: EVQLVESGAEVKKPGESLKISCKGSGYTFTRYWIGWVRQMPGKGLEWMGIIYPGDSDTRYSPSFQGHVTISADKSISTAYLQWNSLKASDTAMYYCARLPQYCSNGVCQRWFDPWGQGTLVTVSS VL: EIVLTQSPSSVSASVGDRVTITCRASQGISSWLAWYQQKPGKAPKLLIYAASSLQSGVPSRFSGSGSGTDFTLTISSLQPEDFATYYCQQGNSFPYTFGQGTNLEIK |  |  |  |  |  |  |  |  |  |  |  |  |  | 16100 | 3260 | 5050 | 3.26e+06 | 3.05e+06 | 3.12e+06 | 6010
Reference Antibody Fab (Fab, V domains shown) VH: EVQLVESGAEVKKPGESLKISCKGSGYTFTRYWIGWVRQMPGKGLEWMGIIYPGDSDTRYSPSFQGHVTISADKSISTAYLQWNSLKASDTAMYYCARLPQYCSNGVCQRWFDPWGQGTLVTVSS VL: EIVLTQSPSSVSASVGDRVTITCRASQGISSWLAWYQQKPGKAPKLLIYAASSLQSGVPSRFSGSGSGTDFTLTISSLQPEDFATYYCQQGNSFPYTFGQGTNLEIK |  |  |  | 244 | 0.0663 | 272000 | 5.4 | 0.00498 | 929000 | 311 | 0.0535 | 172000 | 5.36 |  |  |  |  |  |  | 
AB-1 (antibody, V domains shown) VH: EVQLVESGAEVKKPGESLKISCKGSGYTFTRYWIGWVRQMPGKGLEWMGIIYPGDSDVRYSPSFQGHVTISADKSISTAYLQWNSLKASDTAMYYCARLPQYCSKGVCYRWFDPWGQGTLVTVSS VL: EIVLTQSPSSVSASVGDRVTITCRASQGISSWLAWYQQKPGKAPKLLIYAASSLQSGVPSRFSGSGSGTDFTLTISSLQPEDFATYYCQQGHSFPYTFGQGTNLEIK |  |  |  |  |  |  |  |  |  |  |  |  |  | 9860 |  |  |  |  |  | 
